Source: the supplement of paper PMC7877785
± gives the uncertainty stated by the source.

Assay: self-splicing fitness, log relative to wild type (ln ratio); higher = more splicing; Tetrahymena group I intron in knt gene, E. coli kanamycin selection, DiMSum; sequences stand for … in CUCUCU…GGAGGGAAAAGUUAUCAGGCAUGCACCUGGUAGCUAGUCUUUAAACCAAUAGAUUGCAUCGGUUUAAAAGGCAAGACCGUCAAAUUGCGGGAAAGGGGUCAACAGCCGUUCAGUACCAAGUCUCAGGGGAAACUUUGAGAUGGCCUUGCAAAGGGUAUGGUAAUAAGCUGACGGACAUGGUCCUAACCACGCAGCCAAGUCCUAAGUCAACAGAUCUUCUGUUGAUAUGGAUGCAGUUCACAGACUAAAUGUCGGUCGGGGAAGAUGUAUUCUUCUCAUAAGAUAUAGUCGGACCUCUCCUUAAUGGGAGCUAGCGGAUGAAGUGAUGCAACACUGGAGCCGCUGGGAACUAAUUUGUAUGCGAAAGUAUAUUGAUUAGUUUUGGAGUACUCGUGGUCG
Method in brief: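 Library with all eight P1ex-region intron nucleotides randomised, intron inside the knt kanamycin-resistance gene on pET-22b(+), in E. coli BL21(DE3). Cells grew overnight at 37°C or 30°C on LB agar with or without 25 μg/mL kanamycin (plus 100 μg/mL carbenicillin, 50 μM IPTG, 0.2% rhamnose), in six replicate transformations. Pooled colonies were amplicon-sequenced on Illumina HiSeq 2500. DiMSum fitness is the error-weighted combination of wild-type-normalised replicate fold changes, kanamycin versus none.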

| Sequence | self-splicing fitness (ln) (30 °C) | self-splicing fitness (ln) (37 °C) |
| --- | --- | --- |
| ACGUAGCAAUAUUACGGUGG | -5.08 ± 0.28 | -2.92 ± 0.16 |
| AGCAAGCAAUAUUACGAUGU | -1.92 ± 0.068 | -0.392 ± 0.076 |
| CCACAGCAAUAUUACGGCCU | -3.94 ± 0.24 | -3.38 ± 0.31 |
| ACAUAGCAAUAUUACGCGCG | -0.8 ± 0.12 | -0.126 ± 0.16 |
| ACCUAGCAAUAUUACGACGA | -0.405 ± 0.11 | -0.784 ± 0.093 |
| GUGUAGCAAUAUUACGUCCC | -0.132 ± 0.21 | -0.385 ± 0.23 |
| AUGAAGCAAUAUUACGAUCU | -0.0854 ± 0.072 | 0.317 ± 0.088 |
| GGUGAGCAAUAUUACGGCUC | -1.94 ± 0.24 | -0.104 ± 0.3 |
| AGUCAGCAAUAUUACGAACC | -0.519 ± 0.15 | -0.0581 ± 0.16 |
| UGCCAGCAAUAUUACGAUAC | -3.95 ± 0.25 | -2.29 ± 0.25 |
| CGGGAGCAAUAUUACGUGAA |  | -2.15 ± 0.3 |
| UGCUAGCAAUAUUACGACUC | -2.59 ± 0.27 | -0.141 ± 0.2 |
| AACAAGCAAUAUUACGAGGU | -4.04 ± 0.21 | -3.54 ± 0.17 |
| AUUCAGCAAUAUUACGAUCA | -0.753 ± 0.088 | -0.162 ± 0.11 |
| GAUAAGCAAUAUUACGCAGC | -3.45 ± 0.47 | -0.777 ± 0.29 |
| GUUUAGCAAUAUUACGAGGA | -2.48 ± 0.44 | -1.79 ± 0.37 |
| CUUGAGCAAUAUUACGACGG | -1.97 ± 0.2 | -1.52 ± 0.26 |
| CACAAGCAAUAUUACGAGCC | -4.37 ± 0.42 | -2.17 ± 0.4 |
| CGGAAGCAAUAUUACGUGAU | -3.44 ± 0.12 | -1.96 ± 0.12 |
| AUCGAGCAAUAUUACGGUCC | -3.46 ± 0.46 |  |
| UCGUAGCAAUAUUACGAAAA | -2.3 ± 0.36 | -1.77 ± 0.46 |
| CCUGAGCAAUAUUACGGACG | -2.49 ± 0.16 | -0.682 ± 0.12 |
| AUGUAGCAAUAUUACGUAAG | -2.99 ± 0.2 | -2.93 ± 0.2 |
| UAUUAGCAAUAUUACGAAAU | -2.46 ± 0.35 | -1.53 ± 0.43 |
| UCUAAGCAAUAUUACGCCGU | -1.72 ± 0.12 | -1.09 ± 0.19 |

| Sequence | self-splicing fitness (ln) (30 °C) | self-splicing fitness (ln) (37 °C) |
| --- | --- | --- |
| CGAGAGCAAUAUUACGACAU | -3.964 ± 0.034 | -2.84 ± 0.046 |
| GCGCAGCAAUAUUACGGAAC | -1.37 ± 0.081 | -0.714 ± 0.098 |
| UCCUAGCAAUAUUACGUGUC | -3.06 ± 0.34 | -2.71 ± 0.38 |
| GGCGAGCAAUAUUACGUGAU | -2.26 ± 0.15 | -1.08 ± 0.14 |
| UUCAAGCAAUAUUACGCAGC | -1.85 ± 0.16 | -2.72 ± 0.31 |
| CAUCAGCAAUAUUACGGUUG | -2.29 ± 0.072 | -0.804 ± 0.079 |
| UAAGAGCAAUAUUACGACGA | -1.72 ± 0.19 | -1.61 ± 0.21 |
| AAAUAGCAAUAUUACGAGUU | -1.22 ± 0.11 | -0.896 ± 0.11 |
| CUCAAGCAAUAUUACGCUCU | -4.12 ± 0.25 | -2.39 ± 0.21 |
| AUUAAGCAAUAUUACGGCCC | -0.404 ± 0.27 | -0.419 ± 0.27 |
| UCCGAGCAAUAUUACGUCGG | -2.97 ± 0.44 | -1.86 ± 0.35 |
| UCCUAGCAAUAUUACGGGCA | -0.22 ± 0.085 | 0.2 ± 0.097 |
| AGGUAGCAAUAUUACGCCGC | -3.58 ± 0.053 | -2.77 ± 0.067 |
| CCACAGCAAUAUUACGGUAA | -3 ± 0.14 | -2.2 ± 0.18 |
| GCUUAGCAAUAUUACGAGCA | -2.24 ± 0.14 | -0.963 ± 0.13 |
| CGGCAGCAAUAUUACGUAGU | -3.77 ± 0.21 | -0.852 ± 0.12 |
| CGCGAGCAAUAUUACGUUGC | -3.68 ± 0.3 |  |
| UAAGAGCAAUAUUACGCUGU | -3.35 ± 0.45 | -2.22 ± 0.34 |
| GGAUAGCAAUAUUACGUAAA | -2.12 ± 0.17 | -1.42 ± 0.2 |
| UAAUAGCAAUAUUACGCUCC | -1.74 ± 0.39 | -0.899 ± 0.32 |
| UGCAAGCAAUAUUACGAGCC | -1.39 ± 0.11 | -1.52 ± 0.14 |
| AUGCAGCAAUAUUACGGACC | -1.52 ± 0.17 | -0.744 ± 0.17 |
| AGCCAGCAAUAUUACGAAAU | -3.02 ± 0.11 | -2.17 ± 0.13 |
| AACAAGCAAUAUUACGGGAC | -2.86 ± 0.12 | -1.17 ± 0.12 |
| GAAGAGCAAUAUUACGAGCU | -4.07 ± 0.21 | -1.61 ± 0.14 |

| Sequence | self-splicing fitness (ln) (30 °C) | self-splicing fitness (ln) (37 °C) |
| --- | --- | --- |
| UCCGAGCAAUAUUACGUAUG | -2.36 ± 0.17 | -2.67 ± 0.24 |
| UAGGAGCAAUAUUACGGUGG | -2.79 ± 0.21 | -0.497 ± 0.17 |
| GUCCAGCAAUAUUACGGCGU | -0.257 ± 0.078 | 0.0026 ± 0.099 |
| UCAAAGCAAUAUUACGACGC | -3.24 ± 0.16 | -2.09 ± 0.14 |
| GCAAAGCAAUAUUACGGAAG | -1.96 ± 0.14 | -0.343 ± 0.16 |
| CGUCAGCAAUAUUACGAUUC | -0.695 ± 0.096 | 0.147 ± 0.087 |
| GGAAAGCAAUAUUACGGGCA | -1.2 ± 0.14 | -1.15 ± 0.18 |
| UAGCAGCAAUAUUACGUCAC | -4.49 ± 0.42 | -2.46 ± 0.33 |
| AUUCAGCAAUAUUACGCGCU | -2.15 ± 0.12 | -0.796 ± 0.13 |
| GCCAAGCAAUAUUACGUUAG | -1.93 ± 0.12 | -2.64 ± 0.2 |
| AAAUAGCAAUAUUACGAGCA | -1.4 ± 0.11 | -0.127 ± 0.11 |
| AUACAGCAAUAUUACGUUGG | -3.51 ± 0.14 | -2.87 ± 0.16 |
| GGUCAGCAAUAUUACGCCUG | -2.9 ± 0.2 | -0.721 ± 0.12 |
| UGCGAGCAAUAUUACGCGCC | -2.45 ± 0.26 | -1.29 ± 0.27 |
| CCACAGCAAUAUUACGUUAG | -1.56 ± 0.062 | -0.188 ± 0.071 |
| AAUAAGCAAUAUUACGGGGC | -3.29 ± 0.26 | -2.91 ± 0.37 |
| CGUGAGCAAUAUUACGGUCC | -3.39 ± 0.24 | -1.69 ± 0.24 |
| UUGUAGCAAUAUUACGGGUA | -1.75 ± 0.094 | -0.802 ± 0.099 |
| UGCAAGCAAUAUUACGUAGA | -1.35 ± 0.072 | -0.944 ± 0.1 |
| ACCUAGCAAUAUUACGGAAA | -1.79 ± 0.16 | -1.51 ± 0.12 |
| UUUAAGCAAUAUUACGGUCC | -2.33 ± 0.3 | -1.25 ± 0.25 |
| UCGGAGCAAUAUUACGUGAG | -1.65 ± 0.096 | -1.01 ± 0.12 |
| UUACAGCAAUAUUACGUACA | -0.278 ± 0.087 | 0.137 ± 0.1 |
| UUGCAGCAAUAUUACGCCAG | -0.879 ± 0.13 | 0.0127 ± 0.2 |
| AAGGAGCAAUAUUACGCGUU | -2.22 ± 0.17 | -2.15 ± 0.23 |
